Holding throughout (conditions): FMN input: 0 or 200 uM; Eterna round: R93 (includes R88 designs)
In series [1] the test system is MS2 coat protein. In words: apparent KD of MS2 coat protein, switch ON state; designed switch direction (-1 OFF switch, 1 ON switch): 1; higher = weaker reporter binding. A digest of the protocol:
(§1)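 Binding of SNAP-549-labelled MS2 coat protein was measured on designed RNA switches transcribed on-chip from Illumina sequencing clusters. The protein rose in twofold steps from 0.7 or 1.5 nM to 3 µM, with 0.8–1.5 h per step early on and 10–20 min per step later, in 100 mM Tris-HCl pH 7.5, 80 mM KCl, 4 mM MgCl2, without or with constant ligand. Each design's apparent KD is the median of fits to its normalised cluster binding curves.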

In series [2] the test system is MS2 coat protein. In words: apparent KD of MS2 coat protein, switch OFF state (with FMN for OFF switches, without FMN for ON switches); designed switch direction (-1 OFF switch, 1 ON switch): 1; higher = weaker reporter binding. The gist of the method: as §1
The subject of series [3] is MS2 coat protein. Nature of the series: apparent KD of MS2 coat protein, switch ON state; designed switch direction (-1 OFF switch, 1 ON switch): -1; higher = weaker reporter binding. A digest of the protocol: as §1
The test system of series [4] is MS2 coat protein. In words: apparent KD of MS2 coat protein, switch OFF state (with FMN for OFF switches, without FMN for ON switches); designed switch direction (-1 OFF switch, 1 ON switch): -1; higher = weaker reporter binding. The gist of the method: as §1

Take “AAAAAAAAAACUCAGGAUAUAGAUUGUAGAACAUGAGGAUCACCCAUGUAGUGAAAGAAGAGAGACUAGAAGGGAGUAAAAAAAAA [Same State 2 #3]”: the “apparent KD of MS2 coat protein” value in the series on MS2 coat protein [1] amounted to 43.2 nM; with MS2 coat protein [2], 69.1 nM.
Taken in the same sequence, the figures for “AAAAAAAAACGUGAGGAUAUGUGAAAAUUAACAUGAGGAUCACCCAUGUGAUAAAAAAAAAAAAAACAGAAGGUACAAAAAAAAAA [Same 2 again I have no idea]” were 21.2 nM and 28.4 nM.
Taken in the same sequence, the figures for “AAAAAAAAAGUCGAGGAUAUCCACAUGGCGACAUGAGGAUCACCCAUGUGAAGAAAAGCACAUGAGGAGAAGGCGACAAAAAAAA [Same State 2.7a (Tightrope mod)]” were 32.7 nM and 225 nM.
Taken in the same sequence, the figures for “AAAAAAAAAUCACAGGAUAUACAAAAAAAAACAUGAGGAUCACCCAUGUAAAAAAAAAAAAAAAAGUAGAAGGGUGAUCCAAAAAA” were 12.1 nM and 9.28 nM.
“AAAAAACAAAGAGAGGAUAUCCAAAAAAAAACAUGAGGAUCACCCAUGUAAAGAAAUUUAAAAUGGGAGAAGGCUCUUUGAAAAA [Same State 2.6b ( Helter Skelter 1)]”: the “apparent KD of MS2 coat protein” value in the series with MS2 coat protein [1] came to 33.4 nM; with MS2 coat protein [2], 30.9 nM.
Taken in the same sequence, the figures for “AAAAAACAAAGAGAGGAUAUCCUGAAAAAAACAUGAGGAUCACCCAUGUAAAGAAAUUUAAAAUGGGAGAAGGCUCUUUGAAAAA [Same State 2.6c ( Helter Skelter 1)]” were 24.6 nM and 22.3 nM.
Taken in the same sequence, the figures for “AAAAAACAUGAGGAUCACCCAUGUAAUACAACAUCAGGAUAUUGGCUUGACUAUGUCUUACAAGAAGGGAUGAAAA [Same State 1.3d (Same State 1 - Omei 2 )]” were 30.5 nM and 81.5 nM.
Taken in the same sequence, the figures for “AAAAAACAUGAGGAUCACCCAUGUAGAAACAUGGGAGGAUAUACAAAGACGAAAGUCAAAGUAGAAGGCCUAAAGA [Mat - Same State 1 - Mod - D162]” were 162 nM and 182 nM.
For “AAAAAACAUGAGGAUCACCCAUGUAGAAACAUGGGAGGAUAUACGAAGACGAAAGUCAAAGUAGAAGGCCUAAGAG [Garnet 89]”, the entries for the “apparent KD of MS2 coat protein” value with MS2 coat protein [1] and in the series on MS2 coat protein [2] were 183 nM and 592 nM, respectively.
Taken in the same sequence, the figures for “AAAAAACAUGAGGAUCACCCAUGUGCAAAAUUCGCAGGAUAUUCUUUUUUUAAAUGGGAGGGAGAAGGGUGUAAAA [Nob's Hobby 20 - Jieux - Same State 1]” were 20.8 nM and 21.3 nM.
Turning to “CUCAAGUAAGGAUAUGCAAGAAAAGAAGAGAAAGAAAAGAAGCAGAAGGUACAUGAGGAUCACCCAUGUAAGAA [EteRNA is fun!]”, the “apparent KD of MS2 coat protein” value in the series on MS2 coat protein [3] stood at 37.3 nM; in the series on MS2 coat protein [4] it was 35.8 nM.
Taken in the same sequence, the figures for “CUCAAGUUAGGAUAUAGAAGAAAAGAAGAGAAAGAAAAGAACUAGAAGGAACAUGAGGAUCACCCAUGUAAGAA [EteRNA is fun!]” were 31.2 nM and 20.5 nM.
The matching figures for “CUCUAGUCAGGAUAUACAAGAAAAGAAGAGAAAGAAAAGAAGUAGAAGGGACAUGAGGAUCACCCAUGUAAGAA [EteRNA is fun!]”: 50.9 nM and 48.2 nM.
“CUCUAGUGAGGAUAUACAAGAAAAGAAAAGAAAGAAAAGAAGUAGAAGGCACAUGAGGAUCACCCAUGUAAGAA [EteRNA is fun!]”: the “apparent KD of MS2 coat protein” value in the series on MS2 coat protein [3] was 24.8 nM; in the series with MS2 coat protein [4] it was 30.2 nM.
The matching figures for “CUCUAGUUAGGAUAUGGAAGAAAAGAAAAGAAAGAAAAGAACCAGAAGGAACAUGAGGAUCACCCAUGUAAGAA [EteRNA is fun!]”: 45.5 nM and 34 nM.
Turning to “CUUAUGUCAGGAUAUCAGUAGUAAAAAAAUAAAAUUACUACUGAGAAGGGACAUGAGGAUCACCCAUGUCAAAA [EX4 365: Super Stable 65]”, the “apparent KD of MS2 coat protein” value stood at 164 nM in the series on MS2 coat protein [3] and 97.2 nM in the series with MS2 coat protein [4].
The matching figures for “GAAAAACAUGAGGAUCACCCAUGUAAGGAUAUGCUAAAAAACACGGAAAAACGUGAUAGCAGAAGGUACAAAAG [Mat - Exclusion 1 - Eli mod - D88]”: 19.8 nM and 44 nM.
The matching figures for “GAAAAACAUGAGGAUCACCCAUGUCAGGAUAUCCAAAUAAAAAUAAAAUAAAAUAAAAGGAGAAGGGACAAAAG [Mat - Same state - Mayanna Mod - D101]”: 42.4 nM and 40 nM.

Values taken from the supplement of paper PMC9170038.
